Data as given in patent publication US7919464B2, “Use of a peptide that interacts with αvβ3 integrin of endothelial cell” (Kyungpook National University Industry-Academic Cooperation …, priority 2003, dated 2011).

Columns and labels:
HUVECs cell membrane = test: Binding of biotin-βig-h3 to HUVECs surface (Western immunoblotting); parameters: species or system human; conditions: biotin-βig-h3, 4° C. 5 hours
Protocol: To confirm that HUVECs adhesion that is mediated by βig-h3 depends on αvβ3 integrin, the present inventors tested the binding affinity of βig-h3 in the presence of an antibody that specifically blocks the function of the integrin. This binding assay was performed according to the method described by Maile, L. A., et al., J. Biol. Chem., […].
First, HUVECs were suspended in medium at a density of 1×10^5 cells/ml. 1 ml of the cell suspension was preincubated with anti-αvβ3 antibody (LM609) or anti-αvβ5 antibody (P1F6) at 37° C. for 30 minutes. Thereafter, the preincubated cells were incubated with biotinylated βig-h3 (hereinafter, referred to as “biotin-βig-h3”) in a serum-free medium containing 0.1% BSA at 4° C. for 5 hours. The biotin-βig-h3 was added at concentrations of 1×10^−10, 1×10^−9 and 5×10^−9 μm, respectively. Then, the cells were washed three times with PBS buffer (pH 7.4), and dissolved at 4° C. in ice-cold buffer A (10 mM Tris-Cl, pH 7.4, 150 mM NaCl, 1% Nonidet P-40, 1% sodium deoxycholate, 0.5% SDS, 0.02% sodium azide, 1 mM EDTA, 1 mM phenylmethylsulfonyl fluoride). The cell lysates were clarified by centrifugation at 13,000 rpm for 30 minutes at 4° C. Equal amounts of protein were then separated by SDS-PAGE, 8% gel. The amount of biotin-βig-h3 was determined by Western immuno-blotting. […]

HUVECs = HUVECs adhesion to plates coated with βig-h3, its fas-1 domains or mutants; format: cell-based, human; conditions: 10 μg/ml protein coated on plate; attached cells by absorbance at 405 nm; control BSA
Protocol: Cell adhesion assay was performed according to the method described by Kim, J.-E. et al., J. Biol. Chem., 277:4615946165, 2002. For this purpose, 10 μg/ml of each of the recombinant proteins (βig-h3 His-β-b, βig-h3 D-I, βig-h3 D-II, βig-h3 D-III and βig-h3 D-IV) prepared in Example 1 was placed into a flat-bottomed 96-well ELISA (enzyme-linked immunosorbent assay) plate (Costar, Corning Inc., NY) and then incubated overnight at 4° C., to coat the surface of the plate. As a control, 2% BSA was coated on the plate. Then, the plate was treated with PBS (phosphate-buffered saline) containing 2% BSA, and blocked at room temperature for one hour.
Meanwhile, HUVECs (human umbilical vein endothelial cells; Clonetics, San Diego, Calif.) were incubated in EGM medium (Clonetics, San Diego, Calif.) containing 2% FBS (Fetal Bovine Serum) under a condition of 37° C. and 5% CO2. The incubated cells were suspended in medium at a density of 3×10^5 cells/ml, and 0.1 ml of the cell suspension was added to each well of the plate. Next, the cells were incubated at 37° C. for 30 minutes and washed one time with PBS buffer to remove cells which had not been attached to the plate. Attached cells were added with 50 mM citrate buffer (pH 5.0) containing 3.75 mM p-nitrophenyl-N-acetyl β-D-glycosaminide and 0.25% Triton X-100, and incubated at 37° C. for one hour. Thereafter, 50 mM glycine buffer (pH 10.4) containing 5 mM EDTA was added to block the activity of the enzyme. The absorbance was measured at a 405-nm in a Bio-Rad model 550 microplate reader. Here, the higher the number of cells adhered to the plate, the higher the absorbance.
Each of the deletion mutants was generated by PCR using a cDNA template encoding the fourth fas-1 domain (SEQ ID NO: 5) (Kim, J.-E. et al., J. Biol. Chem., 275:30907-30915, 2000). Each of the PCR-amplified DNA fragments was cloned into the EcoRV/Xhol sites of the pET-29b(+) vector (Novagen; Madison, Wis.). The mutations were confirmed by sequence analysis, and the deletion mutants were expressed and purified according to a prior method (Kim, J.-E., et al., J. Cell. Biochem., 77:169-178, 2000). Thereafter, the cell adhesion activity of each of the deletion mutants was tested in the same manner as in Example 2.
Previously, the present inventors reported that an YH motif, which contains tyrosine-histidine residues highly conserved in the fragment corresponding to amino acids 548-614 of SEQ ID NO: 1, and several leucine and isoleucine residues adjacent to the tyrosine-histidine residues, binds to the αvβ5 integrin (Kim, J.-E., et al., J. Biol. Chem., 277:46159-46165, 2002). Thus, the present inventors suspected that the YH motif may also interact with the αvβ3 integrin to mediate endothelial cell adhesion. For this reason, in the present invention, the tyrosine-histidine residues conserved in the fas-1 domains, and/or the leucine and isolucine residues adjacent to the tyrosine-histidine residues, were substituted in various combinations by alanine or serine (Kim, J.-E., et al., J. Biol. Chem. 277:4615946165, 2002)(see FIG. 4b). The amino acid sequences of the prepared YH motif mutants are shown in SEQ ID NO: 17 to SEQ ID NO: 22. The mutations were confirmed by sequence analysis. Then, the substitution mutants were expressed and purified according to a known method (Kim, J.-E., et al., J. Cell. Biochem., 77:169-178, 2000). The substitution mutants were tested for their cell adhesion activity according to the same manner as in Example 2.

[1] = tested on: pc/293 cells (HEK293 cells transfected with pcDNA3 vector); test: Adhesion of pc/293 cells to βig-h3; format: cell-based, human; conditions: plate coated with βig-h3; control transfectant
Protocol: To construct a human β3 integrin expression vector, RT-PCR was performed using a human placenta poly(A)^+ RNA as a template, thereby generating a 2.4-kb β3 cDNA (Chandrika, S. K. et al., J. Biol. Chem., 272:16390-16397, 1997). The amplified β3 cDNA was digested with HindIII/XbaI, and then cloned into the pcDNA3 vector (Invitrogen). The resulting vector was named “β3/pcDNA3”. Then, 1 μg of the β3/pcDNA3 vector was introduced into HEK293 cells (ATCC, catalog No. CRL 1573) using lipofectamin (Gibco). A control was introduced with a pcDNA3 vector containing no human β3 cDNA. Since all the vectors contain a G418 selection marker, the stable transfected cells were screened using 1 mg/ml of G418. The cell transfected with the β3/pcDNA3 vector was named “β3/293”, and the cell transfected with the pcDNA3 vector (control) was named “pc/293”. Each of the screened transfectants was incubated in DMEM (Dulbecco's Modified Eagle Medium) containing 10% FBS, streptomycin and penicillin. Then, cell adhesion assay was performed in the same manner as in Example 2.

B1: βig-h3: recombinant human βig-h3 protein that expresses all of four fas-1 domains; biotinylated form used in binding assay (protein)
chain: YQRKICGKSTVISYECCPGYEKVPGEKGCPAALPLSNLYETLGVVGSTTTQLYTDRTEKLRPEMEGPGSFTIFAPSNEAWASLPAEVLDSLVSNVNIELLNALRYHMVGRRVLTDELKHGMTLTSMYQNSNIQIHHYPNGIVTVNCARLLKADHHATNGVVHLIDKVISTITNNIQQIIEIEDTFETLRAAVAASGLNTMLEGNGQYTLLAPTNEAFEKIPSETLNRILGDPEALRDLLNNHILKSAMCAEAIVAGLSVETLEGTTLEVGCSGDMLTINGKAIISNKDILATNGVIHYIDELLIPDSAKTLFELAAESDVSTAIDLFRQAGLGNHLSGSERLTLLAPLNSVFKDGTPPIDAHTRNLLRNHIIKDQLASKYLYHGQTLETLGGKKLRVFVYRNSLCIENSCIAAHDKRGRYGTLFTMDRVLTPPMGTVMDVLKGDNRFSMLVAAIQSAGLTETLNREGVYTVFAPTNEAFRALPPRERSRLLGDAKELANILKYHIGDEILVSGGIGALVRLKSLQGDKLEVSLKNNVVSVNKEPVAEPDIMATNGVVHVITNVLQPPANRPQERGDELADSALEI
HUVECs cell membrane
  binding of βig-h3 to HUVECs surface: bound to HUVECs surface in a dose-dependent manner
HUVECs
  endothelial cell (HUVECs) adhesion activity: mediated the adhesion of endothelial cells
[1]
  adhesion of pc/293 cells to βig-h3: not adhered
